# The nanobody polyreactivity screen of Harvey et al. (2022)
# Experiment: yeast display, Sf9 membrane polyspecificity reagent, FACS + sequencing; frameworks hold sequencing errors
# How it was run: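 Sorting gates, low and high (top ~1%), were placed on anti-HA fluorescence to track expression and on streptavidin fluorescence to track reagent binding. A clone's polyreactivity label is taken from the gate it came out of. The reagent was 10% biotinylated, detergent-solubilized Sf9 membrane, applied for 1 hour at 4 °C to galactose-induced yeast display cells.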
row,Sequence,polyreactivity (PSR sort gate)
1,QVQLVESGGGLVQAGGSLRLSCAASGFIFKGNAMGWYRQAPGKERELVAAITNRGGGTYYADSVKGRFTISRDNAKNTVYLQMNSLKPEDTAVYYCAKAYTRPFHPYDYWGQGTQVTVSS,high polyreactivity
2,QVQLVESGGGLVQAGGSLRLSCAASGFIFKHNALGWYRQAPGKERELVAAISWSGDSTYYADSVKGRFTISRDNAKNTVYLQMNSLKPEDTAVYYCAAVRALRKVRDYYYWGQGTQVTVSS,high polyreactivity
3,QVQLVESGGGLVQAGGSLRLSCAASGFIFKPYAMGWYRQAPGKERELVAAITYSGSSTYYADSVKGRFTISRDNAKNTVYLQMNSLKPEDTAVYYCAARDWSHPRRLFYWGQGTQVTVSS,high polyreactivity
4,QVQLVESGGGLVQAGGSLRLSCAASGFIFKPYDMGWYRQARGKERELVAAISWTGTSTYYADSVKGRFTISRDNAKNTVYLQMNSLKPEDTAVYYCAADFYGGFAHEYWGQGTQVTVSS,low polyreactivity
5,QVQLVESGGGLVQAGGSLRLSCAASGFIFKRYTMGWYRQAPGKERELVAAISKSGSSTYYADSVKGRFTISRDNAKNTVYLQMHSLKPEDTAVYYCAAGWGWSSFGYGYWGQGTQVTVSS,high polyreactivity
6,QVQLVESGGGLVQAGGSLRLSCAASGFIFKTYAMGWYRQAPGKERELVARISKSSGNTYYADSVKGRFTISRDNAKNTVYLQMNSLKPEDTAVYYCNRRHTSKNAYTSPSEYDYWGQGTQVTVSS,low polyreactivity
7,QVQLVESGGGLVQAGGSLRLSCAASGFIFKYNAMGWYRQAPGKERELVAAISRSGGRTYYADSVKGRFTISRDNAKNTVSLQMNSLKPEDTAVYYCAARVGVSGFEYDYWGQGTQVTVSS,high polyreactivity
8,QVQLVESGGGLVQAGGSLRLSCAASGFIFLAYAMGWYRQAPGKERELVAAISRSGGRTYYADSVKGRFTISRDNAKNTVYLQMNSLKPEDTAVYYCAPLANGTNGFYYWGQGTQVTVSS,high polyreactivity
9,QVQLVESGGGLVQAGGSLRLSCAASGFIFLAYAMGWYRQAPGKERELVAAISSGSSTSYADSVKGRFTISRDNAKNTVYLQMNSLKPEDTAVYYCNAVPSFANLTWESYDYWGQGTQVTVSS,low polyreactivity
10,QVQLVESGGGLVQAGGSLRLSCAASGFIFLDYAMGWYRQAPGKERELVAAISSRGARTYYADSVKGRFTISRDNAKNTVYLQMNSLKPEDTAVYYCAARGPLVRYGYWGHGTQVTVSS,high polyreactivity
11,QVQLVESGGGLVQAGGSLRLSCAASGFIFLGNAKGWYRQATGKERELVAAISSGGSTYADSVKGRFTISRDNAKNTVYLQMNSLKPEDTAVYYCAVDRAFRAQNYHEYDYWGQGTQVTVSS,low polyreactivity
12,QVQLVESGGGLVQAGGSLRLSCAASGFIFLGNAMGWYRQAPGKERELVAAISSGGSTYADSVKGRFTISRDNAKNTVYLQMNSLKPEDTAVYYCNTEDYTQYEPGYYPPNYYWGQGTQVTVSS,low polyreactivity
13,QVQLVESGGGLVQAGGSLRLSCAASGFIFLLYDMGWYRQAPGKERELVAAISRSGGSTYYADSVKGRFTISRDNAKNTVYLQMNSLKPEDTAVYYCNAAYRPWRGGYYPVGYYYWGQGTQVTVSS,high polyreactivity
14,QVQLVESGGGLVQAGGSLRLSCAASGFIFLNNTLGWYRQAPGKERELVAAISWSGGSTYYADSVKGRFTISRDNAKYSVYLQMNSLKPEDTAVYYCAADVKHTTEYDYWGKGTQVTVSS,high polyreactivity
15,QVQLVESGGGLVQAGGSLRLSCAASGFIFLRYVMGWYRQAPGKERELVAVITGTGVRTYADSVKGRFTISRDNAKNTVYLQMTSLKPEDTAVYYCAVVSSSREVEVLDFDYWGLGTQVTVSS,low polyreactivity
16,QVQLVESGGGLVQAGGSLRLSCAASGFIFLTNSMGWYRQAPGKERELVAAIRWSDDGTYYADSVKGRFTISRDNAKNTVYLQMNSLKPEDTEVYYCAKEVRNTVTTTGQGTQVTVSS,low polyreactivity
17,QVQLVESGGGLVQAGGSLRLSCAASGFIFLYNAMGWYRQAPGKERELVATISTGGDTTYADSVKGRFTISRDNAKNTVYLQMNSVKPEDTAVYYCAKLDLSIFRWDTEFGLYDYWGQGTQVTVLS,low polyreactivity
18,QVQLVESGGGLVQAGGSLRLSCAASGFIFNAYPMGWYRPAPGKERELVAAISSSGGRTYYADSVKGRFTISRDNAKNTVYLHMNSLKPEDTAVYYCNADKNSIIKLRGYYYWGQGTQVTVSS,high polyreactivity
19,QVQLVESGGGLVQAGGSLRLSCAASGFIFNAYVMGWYRQAPGKERELVAAITASGGSTYYADSVKGRFTISRDNAKNTVYLQMNSLKPEDTAVYYCAAAHPYDSRFDYWGQGTQVTVSS,high polyreactivity
20,QVQLVESGGGLVQAGGSLRLSCAASGFIFNINTMGWYRQAPGKERELVAAISGSGDSTYYADSVKGRFTISRDNAKNTVYLQMNSLKPEDTAVYYCNAGPWWYLHEYDYWGQGTQVTVSS,low polyreactivity
21,QVQLVESGGGLVQAGGSLRLSCAASGFIFNKYAMGWYRQAPGKERELVATIRRDGSTNYADSVKGRFTISRDNAKNTVYLQMNSQKPEDTAVYYCAVRPYYWSRDYYWGQGTQVTVSS,high polyreactivity

row,Sequence,polyreactivity (PSR sort gate)
1,QVQLVESGGGLVQAGGSLRLSCAASGFIFNLYAMGWYRQAPGKERELVAVISGSGVRTYYADSVKGRFTISRDNAKNTVYLQMNSLKPEDTAVYYCAARTYGGYEYWGQGTQVTVSS,high polyreactivity
2,QVQLVESGGGLVQAGGSLRLSCAASGFIFNLYAMGWYRQAPGKERELVAVITGSGVRTYYADSVKGRFTISRDNAKNTVYLQMNSLKPEDTAVYYCAARTYGGYEYWGQGTQVTVSS,high polyreactivity
3,QVQLVESGGGLVQAGGSLRLSCAASGFIFNSYAMGGYRQAPGKERELVAAISRRGSSTYYADSVKGRFTISRDNAKNTVYLQMKSLKPEDTAVYYCAKRDLSTSWYLRDYWGQGTQVTVSS,high polyreactivity
4,QVQLVESGGGLVQAGGSLRLSCAASGFIFNTMGWYRQAPGKERELVATISWSDGSTYYADSVKGRFTISRDNAKNTVYLQMNSLKPEDTAVYYCAADSRPWGSSMDSWGQGTQVTVSS,low polyreactivity
5,QVQLVESGGGLVQAGGSLRLSCAASGFIFNTMGWYRQAPGKERELVATMSWSDGSTYYADSVKGRFTISRDNAKNTVYLQMNSLKPEDTAVYYCAATTDALVGRPRYDYWGQGTQVTVSS,low polyreactivity
6,QVQLVESGGGLVQAGGSLRLSCAASGFIFNTNAMRWYRQAPVKEREFDAAITSSDGNTYYADSVKGRFTISRDNAKNTVYLQMNSLKPEDTAVYYCAADARTKSYVRLYDYWGQGTQVTVSS,low polyreactivity
7,QVQLVESGGGLVQAGGSLRLSCAASGFIFNYNAMGWYRQAPGKERELVAAIRTSSGSTYYADSVKGRFTISRDNAKNTVYLQMNSLKPEDTAVYYCAKTRYSTYSPIYYYWGQGTQVTVSS,high polyreactivity
8,QVQLVESGGGLVQAGGSLRLSCAASGFIFNYYDMGWYRQAPGKERELVAAITYSVGSTYYADSVKGRFTISRDNAKNTVYLQMNSLKPEDTAVYYCNKDFLYGIYSYDYWGQGTQVTVSS,high polyreactivity
9,QVQLVESGGGLVQAGGSLRLSCAASGFIFPAYAMGWYRQAPGKEMALVAAITSGGSTNYADSVKGRFTISRDNAKNTVYLQMNSLKPEDTAVYYCAADFDSILSVRSYRSRWYDYWGQGTQVAVSS,low polyreactivity
10,QVQLVESGGGLVQAGGSLRLSCAASGFIFPDNAMGWYRQAPGKERELVATITSGGNTYYADSVKGRFTISRDNAKNTVYIQMNSLKPEDTAVYYSAAEWDYYDYDWYIAWTIDYWGQGTQVTVSS,low polyreactivity
11,QVQLVESGGGLVQAGGSLRLSCAASGFIFPDYGMGSYRQAPGKERELVAAIYRNGVSTYYADSVKGRFTISRDNAKNTVYLQMKSLKPEDTAVYYCAARFYRIRRVSKSGYYWGLGTQVTVSS,low polyreactivity
12,QVQLVESGGGLVQAGGSLRLSCAASGFIFPGYAMGWYRQAPGKEREFVAVISRSGVRTYYADSVKGRFTISRDNAKNTVYLQMNSLKPEDTAVYYCAARYYSTDLEYWGQGTQVTVSS,low polyreactivity
13,QVQLVESGGGLVQAGGSLRLSCAASGFIFPLYTMGWYRQAPGKERELVAAISWIGGRTYYADSVKGRFTISRDNAKNTVYLQMNSLKPEDSAVYYCAKDPTGGGYGYDYWGQGTQVTVSS,low polyreactivity
14,QVQLVESGGGLVQAGGSLRLSCAASGFIFPNKAMGWYRQAPGKERELVARISYGGGDTHYADSVKGRFTISRDNAKNTVYLQMNSLKPEDTAVYYCSYYYWGQGTQVTVSS,low polyreactivity
15,QVQLVESGGGLVQAGGSLRLSCAASGFIFPRYFMGLYRQAPGKERELVAAINSDISTNYADSVKWRFTISRDNAKNTVYLQMNSLKPEDTAVYYCAADRWDDPWEFDYWGQCTQVTVSS,low polyreactivity
16,QVQLVESGGGLVQAGGSLRLSCAASGFIFPWNAMAWYRQAPRKERELVAAISFSGGSTYYADSVKGRFTISRDNAKNTVYLQMNSLKPEDTAVYYCAKRTWDLRRTRHYYWGQGTQVTVSS,low polyreactivity
17,QVQLVESGGGLVQAGGSLRLSCAASGFIFPYNTMGWYRQATAKERELVAAIRYSAGRTYYADSVKGRFTISRDNAKNTVYLQMNSLKPEDTEVYYCNGVSSGDMDYWGQGTQVTVSS,high polyreactivity
18,QVQLVESGGGLVQAGGSLRLSCAASGFIFPYYAMGWYRQAPGKERELVAAISGSGGSTYYADSVKGRFTISRDNANYTVYLQMNSLKPEDTAVYYCAASARRLNMGYWGQGTQVTVSS,high polyreactivity
19,QVQLVESGGGLVQAGGSLRLSCAASGFIFQGNAKGWYRQAPGKERELVAAITRGGGRTYYADSVKGRFTISRDNSKNTVYLQMNSLKPEDSAVNYCNAVGRSKYDYWGQGTQVTVSW,high polyreactivity
20,QVQLVESGGGLVQAGGSLRLSCAASGFIFQIYAMGWYRQAPGKERELVAAISSGGSTNYADSVKGRFTISRDNAKNTVYVQMNSMKPEDTAVYYCAAATHYWYFYSFKDKSGFRGYYWGQGTQVTVSS,high polyreactivity
